Laboratory results published in patent US20210253643A1, “HYDROPHOBIC BIOMOLECULE STABILIZING SCAFFOLD PEPTIDES AND METHODS OF MAKING AND USING SAME” (The University of British Columbia, priority 2018, published 2021).
No end group written: not given here.

Tests used:
membrane proteins = test: on-gel reconstitution, competitor equimolar NSPr-FAM; 0 no, 100 full competition
MalFGK2, P02916 [1] = test: BN-PAGE of MalFGK2-NSPr, time 0 hr of incubation at 30 °C
MalFGK2, P02916 [2] = test: BN-PAGE of MalFGK2-NSPr after 3 hr of incubation at 30 °C
MalFGK2, P02916 [3] = test: SDS-PAGE densitometry of purified peptidisc against an NSPr standard curve
[4] = molecular target: photosynthetic bacterial reaction center (BRC) from Rhodobacter sphaeroides (Rhodobacter sphaeroides), P0C0Y9; test: as above
MalFGK2, P02916 [5] = test: BN-PAGE of MalFGK2-NSPr after 2 hr of incubation at 30 °C
MalFGK2, P02916 [6] = test: in-gel reconstitution, CN-PAGE titration of NSPr, Boltzmann fit
SecYEG complex, P0AGA2 = molecular target: T1, SecYEG complex, P0AGA2; test: as above
T1 chain 1: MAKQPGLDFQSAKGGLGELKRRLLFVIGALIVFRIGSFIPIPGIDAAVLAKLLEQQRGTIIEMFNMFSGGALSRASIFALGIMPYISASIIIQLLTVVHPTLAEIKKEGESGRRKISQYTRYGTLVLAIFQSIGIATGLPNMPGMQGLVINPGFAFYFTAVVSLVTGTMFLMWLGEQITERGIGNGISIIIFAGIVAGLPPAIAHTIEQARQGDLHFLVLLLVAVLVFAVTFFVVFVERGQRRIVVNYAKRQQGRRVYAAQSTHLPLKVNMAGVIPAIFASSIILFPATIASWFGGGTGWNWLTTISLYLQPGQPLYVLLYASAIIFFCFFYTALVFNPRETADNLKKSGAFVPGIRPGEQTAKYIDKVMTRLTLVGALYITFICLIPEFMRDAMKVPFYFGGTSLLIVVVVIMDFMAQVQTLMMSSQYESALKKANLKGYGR
T1 chain 2: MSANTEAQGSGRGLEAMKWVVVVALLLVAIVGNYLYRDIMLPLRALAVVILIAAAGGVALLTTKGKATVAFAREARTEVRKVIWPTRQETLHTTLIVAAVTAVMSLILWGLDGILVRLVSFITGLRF
T1 chain 3: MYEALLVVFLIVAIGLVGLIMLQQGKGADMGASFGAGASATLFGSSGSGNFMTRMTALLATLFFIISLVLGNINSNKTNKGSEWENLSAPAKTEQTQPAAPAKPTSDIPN

FhuA (E. coli), P06971 [7] = molecular target: T2, FhuA (E. coli), P06971; test: as above
T2 chain: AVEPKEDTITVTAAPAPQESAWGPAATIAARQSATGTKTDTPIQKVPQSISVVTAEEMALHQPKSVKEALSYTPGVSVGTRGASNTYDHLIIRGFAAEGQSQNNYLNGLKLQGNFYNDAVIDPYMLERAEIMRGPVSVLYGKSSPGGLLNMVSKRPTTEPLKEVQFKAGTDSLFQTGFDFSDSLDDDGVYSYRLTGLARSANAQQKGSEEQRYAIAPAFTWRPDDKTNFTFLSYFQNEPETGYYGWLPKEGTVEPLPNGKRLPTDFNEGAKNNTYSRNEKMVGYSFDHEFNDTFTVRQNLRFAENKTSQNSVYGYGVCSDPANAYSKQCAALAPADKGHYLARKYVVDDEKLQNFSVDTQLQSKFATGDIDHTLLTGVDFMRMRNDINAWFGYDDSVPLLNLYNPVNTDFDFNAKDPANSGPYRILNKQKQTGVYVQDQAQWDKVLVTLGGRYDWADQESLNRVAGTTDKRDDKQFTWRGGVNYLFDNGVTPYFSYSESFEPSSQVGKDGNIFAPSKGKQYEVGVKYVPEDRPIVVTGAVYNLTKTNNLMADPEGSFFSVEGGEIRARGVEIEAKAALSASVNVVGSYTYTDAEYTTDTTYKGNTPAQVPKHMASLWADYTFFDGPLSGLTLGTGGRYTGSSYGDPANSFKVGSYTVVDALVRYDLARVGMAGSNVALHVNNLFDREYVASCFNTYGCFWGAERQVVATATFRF

[8] = molecular target: T3, trimeric OmpF porin (E. coli), P02931; test: as above
T3 chain: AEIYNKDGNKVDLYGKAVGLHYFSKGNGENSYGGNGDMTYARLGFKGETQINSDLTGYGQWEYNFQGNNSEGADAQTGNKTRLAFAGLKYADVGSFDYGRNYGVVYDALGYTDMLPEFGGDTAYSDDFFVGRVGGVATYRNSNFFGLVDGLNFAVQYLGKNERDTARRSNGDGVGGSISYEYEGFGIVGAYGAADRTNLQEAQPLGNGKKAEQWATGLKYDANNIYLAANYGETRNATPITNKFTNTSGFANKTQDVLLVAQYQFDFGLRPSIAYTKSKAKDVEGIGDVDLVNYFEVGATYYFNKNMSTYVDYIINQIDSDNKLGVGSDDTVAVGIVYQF

MalFGK2, P02916 [9] = test: BN-PAGE of MalFGK2-NSPr after 1 hr of incubation at 30 °C
FhuA (E. coli), P06971 [10] = molecular target: T2, FhuA (E. coli), P06971; test: density of the FhuA band of FIG. 19B plotted against log(mol NSPr/mol FhuA); half-maximal reconstitution ratio RR50
FhuA (E. coli), P06971 [11] = molecular target: T2, FhuA (E. coli), P06971; test: western blot with streptavidin-Alexa 680 of peptidisc made with NSPrbio, against a standard curve

MalFGK2, P02916, sequence (P02916 whole entry, chain 1 of 3): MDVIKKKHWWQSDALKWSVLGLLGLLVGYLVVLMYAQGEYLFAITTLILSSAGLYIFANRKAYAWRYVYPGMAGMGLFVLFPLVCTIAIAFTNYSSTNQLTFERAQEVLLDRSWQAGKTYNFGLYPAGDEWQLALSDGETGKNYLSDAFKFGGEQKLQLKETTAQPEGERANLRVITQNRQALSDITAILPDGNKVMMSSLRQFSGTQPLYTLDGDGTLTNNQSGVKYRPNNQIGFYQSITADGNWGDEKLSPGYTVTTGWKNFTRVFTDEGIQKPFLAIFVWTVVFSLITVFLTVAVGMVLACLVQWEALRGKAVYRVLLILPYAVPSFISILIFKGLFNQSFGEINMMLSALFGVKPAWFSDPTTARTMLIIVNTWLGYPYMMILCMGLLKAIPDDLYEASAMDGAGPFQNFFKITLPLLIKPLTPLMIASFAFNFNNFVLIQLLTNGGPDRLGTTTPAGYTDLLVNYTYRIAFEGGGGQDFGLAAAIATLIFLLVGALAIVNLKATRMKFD
MalFGK2, P02916, sequence (P68183 whole entry, chain 2 of 3, further chain): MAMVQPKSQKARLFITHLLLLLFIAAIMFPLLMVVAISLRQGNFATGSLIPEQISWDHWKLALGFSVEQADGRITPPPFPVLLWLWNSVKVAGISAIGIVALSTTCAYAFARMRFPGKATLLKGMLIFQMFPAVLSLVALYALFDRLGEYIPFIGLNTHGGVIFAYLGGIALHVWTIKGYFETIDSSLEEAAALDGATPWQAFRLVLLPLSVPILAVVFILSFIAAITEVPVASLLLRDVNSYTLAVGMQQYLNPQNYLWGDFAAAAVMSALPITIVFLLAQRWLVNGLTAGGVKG
MalFGK2, P02916, sequence (P68187 whole entry, chain 3 of 3, further chain): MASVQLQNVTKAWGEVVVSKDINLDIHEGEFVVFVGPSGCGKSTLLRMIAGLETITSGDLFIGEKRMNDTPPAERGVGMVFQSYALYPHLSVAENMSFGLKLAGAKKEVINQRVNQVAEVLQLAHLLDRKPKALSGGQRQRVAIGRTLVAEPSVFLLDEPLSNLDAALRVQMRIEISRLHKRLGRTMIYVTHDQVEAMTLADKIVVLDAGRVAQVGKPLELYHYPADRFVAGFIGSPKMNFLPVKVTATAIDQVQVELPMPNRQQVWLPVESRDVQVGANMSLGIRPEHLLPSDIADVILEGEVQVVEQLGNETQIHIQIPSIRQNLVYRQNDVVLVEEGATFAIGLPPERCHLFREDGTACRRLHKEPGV

**Q.** With DWLKAFYDKVAEKLKEAAPDWFKAFYDKVAEKFKEAF (not fully specified (N-terminus, C-terminus)) [Ac-NSP-NH2] as the binder, how does the Competition peptide (% NSPr-FAM) (membrane proteins) read?
**A.** Its Competition peptide (% NSPr-FAM) is 10%.

**Q.** Which (%) of the MalFGK2 Peptidisc band (MalFGK2, P02916 [1]) does the source give for FAEKFKEAVKDYFAKFWDPAAEKLKEAVKDYFAKLWD (modifications not checked) [NSPr] here?
**A.** The (%) of the MalFGK2 Peptidisc band was 100%.

**Q.** And the (%) of the MalFGK2 Peptidisc band (MalFGK2, P02916 [2])?
**A.** Its (%) of the MalFGK2 Peptidisc band is 84%.

**Q.** What about the Measured NSPr stoichiometry (NSPr/disc) (MalFGK2, P02916 [3]) of the same binder?
**A.** Its Measured NSPr stoichiometry (NSPr/disc) is 10 NSPr/disc.

**Q.** And the Measured NSPr stoichiometry (NSPr/disc) [4]?
**A.** The Measured NSPr stoichiometry (NSPr/disc) was 9 NSPr/disc.

**Q.** And the (%) of the MalFGK2 Peptidisc band (MalFGK2, P02916 [5])?
**A.** The (%) of the MalFGK2 Peptidisc band was 86%.

**Q.** And the RR50 (half-maximal reconstitution molar ratio) (mol NSPr/mol protein) (MalFGK2, P02916 [6])?
**A.** Its RR50 (half-maximal reconstitution molar ratio) (mol NSPr/mol protein) is 20.

**Q.** What about the RR50 (half-maximal reconstitution molar ratio) (mol NSPr/mol protein) (SecYEG complex, P0AGA2) of the same binder?
**A.** The RR50 (half-maximal reconstitution molar ratio) (mol NSPr/mol protein) was 20.

**Q.** What about the RR50 (half-maximal reconstitution molar ratio) (mol NSPr/mol protein) (FhuA (E. coli), P06971 [7]) of the same binder?
**A.** Its RR50 (half-maximal reconstitution molar ratio) (mol NSPr/mol protein) is 20.

**Q.** And the RR50 (half-maximal reconstitution molar ratio) (mol NSPr/mol protein) [8]?
**A.** The RR50 (half-maximal reconstitution molar ratio) (mol NSPr/mol protein) was 20.

**Q.** What about the (%) of the MalFGK2 Peptidisc band (MalFGK2, P02916 [9]) of the same binder?
**A.** Its (%) of the MalFGK2 Peptidisc band is 89%.

**Q.** And the EC50 (read off the curve) (mol NSPr/mol FhuA) (FhuA (E. coli), P06971 [10])?
**A.** Its EC50 (read off the curve) (mol NSPr/mol FhuA) is 20.

**Q.** How did the Measured NSPr stoichiometry (NSPr/disc) (FhuA (E. coli), P06971 [11]) turn out when FAEKFKEAVKDYFAKFWDPAAEKLKEAVKDYFAKLWD (not fully specified (N-terminus)) [NSPr-biotin] was run?
**A.** The Measured NSPr stoichiometry (NSPr/disc) was 10 NSPr/disc.
